Substrate in this data set: Nc1ncnc2c1ncn2[C@@H]1O[C@H](COP(=O)(O)OP(=O)(O)OP(=O)(O)O)[C@@H](O)[C@H]1O
The data set is described as follows: NADH-coupled ATPase assay (pyruvate kinase / lactate dehydrogenase), Michaelis-Menten. It counts as biochemical, Arabidopsis thaliana. The note with it: no tRNA, 2 μM protein, 0–50 μM ATP, 5 mM MgCl2, pH 7.5, 25°C, BUD32 site.

The values below come from article PMC11077089, “Molecular basis of A. thaliana KEOPS complex in biosynthesizing tRNA t^6A” (Nucleic Acids Research, 2024).

As usually defined, the Km is the substrate concentration at which the rate is half of its maximum.

B1: AtKEOPS (wild-type KEOPS dimer, P2K2B2C2) (Arabidopsis thaliana) (protein)
chain: MDCEENVRDESLVLIKQGAEARVFESTFAGRRSIVKERFSKKYRHPILDAKLTLKRLNAEARCMTKARKLGVCTPVLYAVDTLLHSLTLEYIEGVSVKDIFLEFGTNGVVEERLDDVAAQIGAAIAKLHDGGLAHGDLTTSNMLVRSGTNQLVLIDFGLSVTSTLPEDKAVDLYVLERALLSMHSSCGNVMDRILTAYRKSSKQWSATFNKLAQVRQRGRKRTMIG
notes: reconstituted from KAE1-PCC1-6His and BUD32-CGI121-6His expressed in E. coli; SEC ~200 kDa dimer; some N-terminal KAE1 degradation; with tRNA N6-adenosine threonylcarbamoyltransferase KAE1; EKC/KEOPS complex subunit CGI121; EKC/KEOPS complex subunit PCC1
Take B1: the Km is 0.95 ± 0.053 µM and the kcat amounted to 0.019 ± 0.00073 s^–1.
